Series [1] addresses T1, KSRP (KHSRP) (UniProt Q92945 Q92945:2-711).
T1 sequence: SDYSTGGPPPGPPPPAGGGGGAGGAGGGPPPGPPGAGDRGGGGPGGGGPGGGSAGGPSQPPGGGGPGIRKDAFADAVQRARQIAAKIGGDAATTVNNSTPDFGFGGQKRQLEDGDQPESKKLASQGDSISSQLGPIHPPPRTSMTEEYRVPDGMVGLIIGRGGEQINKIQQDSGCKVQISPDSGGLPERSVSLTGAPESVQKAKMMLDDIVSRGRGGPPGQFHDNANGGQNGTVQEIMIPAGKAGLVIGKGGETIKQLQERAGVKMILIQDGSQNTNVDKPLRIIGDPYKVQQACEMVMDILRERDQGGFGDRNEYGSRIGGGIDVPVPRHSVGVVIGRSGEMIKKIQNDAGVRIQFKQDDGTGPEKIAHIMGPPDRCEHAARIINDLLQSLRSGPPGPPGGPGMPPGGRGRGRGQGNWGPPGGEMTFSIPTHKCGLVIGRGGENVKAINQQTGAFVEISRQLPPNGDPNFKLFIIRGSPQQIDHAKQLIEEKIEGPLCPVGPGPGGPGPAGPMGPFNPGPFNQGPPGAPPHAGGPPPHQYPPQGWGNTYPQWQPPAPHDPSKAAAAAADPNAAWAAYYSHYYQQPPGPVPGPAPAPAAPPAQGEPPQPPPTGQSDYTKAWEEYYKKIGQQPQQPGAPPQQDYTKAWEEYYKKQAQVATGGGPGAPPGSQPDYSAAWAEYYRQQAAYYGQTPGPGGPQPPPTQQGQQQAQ
The series is described as follows: EMSA; 0.5 uM KSRP, 5 mM MgCl2, 50 mM KCl, yeast tRNA, pH 7.4, room temperature. Particulars: tags: recombinant, Origene; label: 32P-UTP; hairpin. The protocol: (§1) The pre-miR-198 substrate for gel retardation assay was prepared as described above. Pre-miR-198 transcripts with mutated terminal loop and stem sequences (FIG. 11B) were generated by mutating the parental plasmid (pBSKS) constructs with Quickchange site directed mutagenesis Kit (Stratagene). Recombinant KSRP protein (0.5 μM) was incubated with the wild type or mutant pre-miR-198 transcripts in 20 μl of reaction buffer containing 30 mM Tris HCl, pH 7.4, 5 mM MgCl₂, 50 mM KCl, 0.5 mM DTT, 40 u/ml of RNaseOUT, 250 μg/ml of yeast tRNA and 10% glycerol. After 30 min at room temperature, reaction products were resolved through 6% native polyacrylamide gel electrophoresis. Gel was dried and the protein RNA complex and unbound RNA were visualized by phosphorimaging.
Background: In EMSA bound probe runs differently from free probe, usually more slowly.

Series [2] deals with T1, KSRP (KHSRP). The experiment in a line: EMSA; binding abrogated; 0.5 uM KSRP. The following applies: tags: recombinant, Origene; label: 32P-UTP; hairpin. The protocol: as §1

Residue numbers refer to the chain shown, from its start.

B1: pre-miR-198 wild type (ssRNA)
RNA: UCAUUGGUCCAGAGGGGAGAUAGGUUCCUGUGAUUUUUCCUUCUUCUCUAUAGAAUAAAUGA
With B1, the binding result with KSRP (KHSRP) [1] is recorded as “binds”.

B2: pre-miR-198 Mut-1 (ssRNA)
RNA: B1 RNA with G30C, G32C
modifications: [NONE]
In the case of B2, the binding result with KSRP (KHSRP) [2] was “no binding”.

Source of the values: patent US20150290289, “METHOD OF PROMOTING WOUND HEALING” (Agency for Science, Technology and Research, published 2015).
